Laboratory results: US20140105889A1 (published 2014)
Positions count from the first letter of the chain named. Like-named read-outs stand apart in the source and are kept apart here.

How the values were obtained:
[1] = target: T1, human FcγRIIIa(F) (human, UniProt P08637 17-208, limits assumed); test: SPR (Biacore), antibody captured on Protein L, human FcγR as analyte, pH 7.4, 25 C
T1 construct: also called hFcgRIIIa(F); hFcgRIIIa

[2] = target: T2, mouse FcγRIV (mouse); test: SPR (Biacore), antibody captured on Protein L, mouse FcγR as analyte, pH 7.4, 25 C
T2 construct: Bought soluble receptor; also called mFcgRIV; mFcgR IV

[3] = target: T3, human FcRn (human); test: SPR (Biacore), pH 7.0, 25 C; antibody captured on Protein L, human FcRn injected
T3 construct: Soluble human FcRn complexed with beta2-microglobulin; also called hFcRn; soluble human FcRn complexed with β2-microglobulin

[4] = target: T4, human FcRn (soluble human FcRn complexed with β2-microglobulin) (human, UniProt P61769 21-119); test: Biacore SPR, pH 7.0, 25 C; antibody captured by Protein L, human FcRn as analyte
T4 construct: also called hFcRn

[5] = target: T4, human FcRn (soluble human FcRn …); test: as above; remark: listed apart in the source
[6] = target: T5, human FcγRIIb (human, UniProt P31994 43-217, limits assumed); test: SPR KD for FcγRIIb of parent IL6R-B3/IL6R-L divided by that of this variant
T5 construct: also called FcγIIB; hFcgRIIb
T5 sequence: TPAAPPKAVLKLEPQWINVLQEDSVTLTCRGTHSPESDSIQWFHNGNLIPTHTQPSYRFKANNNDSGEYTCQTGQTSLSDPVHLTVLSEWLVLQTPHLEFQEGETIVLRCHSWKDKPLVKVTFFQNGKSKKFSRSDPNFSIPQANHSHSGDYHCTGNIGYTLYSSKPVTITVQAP

[7] = target: T6, human FcγRIIa type H (human, UniProt P12318 36-217); test: SPR (Biacore), captured antibody, FcγR as analyte, 25 C
T6 construct: also called FcγRIIaH; FcγRIIa(H)
T6 sequence: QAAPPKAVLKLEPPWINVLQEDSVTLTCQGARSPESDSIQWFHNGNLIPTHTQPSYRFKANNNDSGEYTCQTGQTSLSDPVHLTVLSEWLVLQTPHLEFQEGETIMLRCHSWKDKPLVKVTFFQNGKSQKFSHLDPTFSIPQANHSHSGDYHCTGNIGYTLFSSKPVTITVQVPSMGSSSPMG

[8] = target: T5, human FcγRIIb; test: ratio of this variant's SPR KD for FcγRIIaH to its KD for FcγRIIb
[9] = target: T5, human FcγRIIb; test: ratio of this variant's SPR KD for FcγRIIaR to its KD for FcγRIIb
[10] = target: T7, human FcRn (human); test: SPR (Biacore), pH 7.0, 25 C, antibody captured by Protein L, human FcRn as analyte
T7 construct: also called hFcRn; soluble human FcRn complexed with β2-microglobulin

[11] = target: T5, human FcγRIIb; test: SPR (Biacore), captured antibody, FcγR as analyte, 25 C

T4 sequence (chain, as listed by the source limits assumed, chain 1 of 2): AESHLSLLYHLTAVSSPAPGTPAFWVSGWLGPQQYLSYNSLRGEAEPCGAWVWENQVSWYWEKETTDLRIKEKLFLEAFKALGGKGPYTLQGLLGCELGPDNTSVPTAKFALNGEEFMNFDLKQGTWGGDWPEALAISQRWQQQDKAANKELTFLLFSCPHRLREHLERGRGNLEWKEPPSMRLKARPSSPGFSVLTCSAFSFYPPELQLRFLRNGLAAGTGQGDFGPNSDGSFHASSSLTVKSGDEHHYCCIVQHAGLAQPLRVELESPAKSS
T4 sequence (P61769 21-119 limits assumed, chain 2 of 2): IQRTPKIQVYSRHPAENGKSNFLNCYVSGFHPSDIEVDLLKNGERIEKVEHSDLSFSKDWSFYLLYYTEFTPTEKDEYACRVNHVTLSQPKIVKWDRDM
T1 sequence (P08637 other isoform, or with tags, fused parts or gaps limits assumed): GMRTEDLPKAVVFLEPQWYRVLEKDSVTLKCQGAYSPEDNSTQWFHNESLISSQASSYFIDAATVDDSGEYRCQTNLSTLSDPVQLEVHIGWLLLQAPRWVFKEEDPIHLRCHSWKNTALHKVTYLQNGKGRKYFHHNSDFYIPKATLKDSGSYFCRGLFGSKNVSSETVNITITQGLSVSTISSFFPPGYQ
T2 sequence (A0A0B4J1G0 21-203): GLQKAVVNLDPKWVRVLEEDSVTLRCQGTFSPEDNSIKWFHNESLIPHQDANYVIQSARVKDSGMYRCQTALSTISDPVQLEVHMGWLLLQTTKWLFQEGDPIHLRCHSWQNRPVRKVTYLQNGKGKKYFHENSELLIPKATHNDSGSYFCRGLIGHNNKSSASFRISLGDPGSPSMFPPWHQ

B1: VH3/L(WT)-IgG1-F21 (antibody)
heavy: QVQLQESGPGLVKPSETLSLTCAVSGHSISHDHAWSWVRQPPGEGLEWIGFISYSGITNYNPSLQGRVTISRDNSKNTLYLQMNSLRAEDTAVYYCARSLARTTAMDYWGEGTLVTVSSASTKGPSVFPLAPSSKSTSGGTAALGCLVKDYFPEPVTVSWNSGALTSGVHTFPAVLQSSGLYSLSSVVTVPSSSLGTQTYICNVNHKPSNTKVDKKVEPKSCDKTHTCPPCPAPELLGGPSVFLFPPKPKDTLYISRTPEVTCVVVDVSHEDPEVKFNWYVDGVEVHNAKTKPREEQYNSTYRVVSVLTPLHQDWLNGKEYKCKVSNKALPAPIEKTISKAKGQPREPQVYTLPPSRDELTKNQVSLTCLVKGFYPSDIAVEWESNGQPENNYKTTPPVLDSDGSFFLYSKLTVDKSRWQQGNVFSCSVMHEALHYHYTQKSLSLSP
light: not shown
notes: copies: 2 + 2
BINDING AMOUNT (RU) [1]: 147 RU | BINDING AMOUNT (RU) [2]: 242 RU

B2: IgG1-F722 (antibody)
heavy: B1 heavy with P240D, P310V, A329G
light: not shown
notes: Substitutions by EU numbering; copies: 2 + 2
Kd [3]: 270 nM

B3: IgG1-F79 (antibody, name in EU numbering)
heavy: B1 heavy with Y254M, S256T, T258E, P310V, Y436A
light: not shown
notes: VH3-IgG1 Fc variant; EU numbering
Kd [4]: 5900 nM

B4: IgG1-F207 (antibody, name in EU numbering)
heavy: B1 heavy with T309K, P310V
light: not shown
notes: as for B3
Kd [5]: 940 nM

B5: IL6R-BP084/IL6R-L (antibody, human IgG1)
heavy: B1 heavy with P240D, Y254M, P310V, V325M, A332K, Y436N, K441E
light: DIQMTQSPSSLSASVGDRVTITCRASQDISSYLNWYQQKPGKAPKLLIYYTSRLHSGVPSRFSGSGSGTDFTFTISSLQPEDIATYYCQQGNTLPYTFGQGTKVEIK
notes: copies: 2 + 2
KD(IIb) of the parent polypeptide/KD(IIb) of the altered polypeptide [6]: 5.1 | Kd [7]: 2400 nM | KD (IIaH)/KD (IIb) [8]: 47.6 | KD (IIaR)/KD (IIb) [9]: 14.3

B6: F1113 (antibody, name in EU numbering)
heavy: B1 heavy with P310V, Y438V, S442D
light: not shown
notes: copies: 2 + 2
Kd [10]: 118 nM

B7: IL6R-BP132/IL6R-L (antibody, human IgG1)
heavy: B1 heavy with E235D, P240D, Y254M, P310V, K328A, A332K, Y436N, K441E
light: B5 light
notes: copies: 2 + 2
KD(IIb) of the parent polypeptide/KD(IIb) of the altered polypeptide [6]: 6.4 | Kd [11]: 270 nM | KD (IIaH)/KD (IIb) [8]: 61.1 | KD (IIaR)/KD (IIb) [9]: 21.5
